Measured values taken from patent US8741840B2, “BMP-7 for use in treating neointimal hyperplasia” (Washington University, priority 2008, dated 2014).
Several values for one entry are separate records, joined by “and”; a condition that tells them apart may be missing. Equal values may be shown once.

Tests used:
[1] = test system: human vascular smooth muscle cells (hVSMC) isolated from atherosclerotic donors; test: Phosphorus stimulated matrix mineralization (matrix Ca content) in hVSMC cultures; format: cell-based; set-up: Matrix Ca content, Effects of 10 ng/ml BMP-7: unit not given here
Procedure: Cell Culture: Human adult aorta were obtained from seven cadaveric organ donors rejected because of atherosclerosis by Mid-America Transplant Services (St. Louis, Mo.) and enzymatically digested to obtain Human Smooth Muscle Cells (HSMC). Medial tissue was separated from the adventia and intima and digested with collagenase type I (Worthington, Lakewood, N.J.) 2 mg/ml for 1 hr, and washed with Hank's balanced salt solution (HBSS). Further digestion followed with collagenase type II 1 mg/ml (Worthington, Lakewood, N.J.) and elastase 0.25 mg/ml (Worthington, Lakewood, N.J.) for 4 hrs. Cell suspensions were washed twice with HBSS and cultured in T-75 flasks for three weeks in a 95%/5% air/CO2 humidified environment at 37° C. The growth medium used was DMEM containing […] glucose (high glucose), 10% fetal bovine serum (FBS, Atlas, Fort Collins, Colo.), 1 mM sodium pyruvate, 100 units/ml Penicillin and […] Streptomycin (Sigma, St Louis, Mo.). Cell purity was assessed by positive immunostaining for α-smooth muscle actin and calponin and for the absence of von Willebrand factor. In all experimental protocols, cells were seeded at 1×10^5 cells/well in six-well plates. Medium was changed on the first day and every third day thereafter. In all cases, cells used were between passages two and five (Table 3).
Induction of Calcification: At the time of confluence, cells were switched to mineralization medium consisting of DMEM supplemented with 1 or 2 mM Pi. For cells exposed to BMP-7 treatment, fresh mineralization medium containing either vehicle (mannitol, acetic acid, acetate) or BMP-7 in vehicle was added at 0.1, 1.0, 10, or 100 ng/ml. The medium was changed every two or three days. […] Calcium content was quantified and normalized to cellular protein as described. (Jono 2000; Moe S. M. et al., Kidney Int 67:2295-2304, 2005)^11;52
In vitro matrix mineralization. […]

[2] = test system: AV anastomosis NH lesion in mice; test: Neointimal hyperplasia lesion formation at arteriovenous fistula anastomosis in CKD and sham mice; format: in vivo, mouse
Text: Six weeks after creation of CKD and sham mice as described above, animals underwent an AV fistula creation by anastomosing the left common carotid artery to the jugular vein in an end-to-side fashion. Under a sterile condition, a vertical incision was made in the left neck with the left common carotid artery and the adjacent external jugular vein carefully dissected out. The common carotid artery clamp was placed at the proximal portion with an 11-0 nylon suture and the common carotid artery was divided just proximal to the bifurcation. Next, the jugular vein was clamped proximally and distally and punctured in the middle portion with a 27 G syringe. After filling this vein segment with heparinized saline, the venotomy of 0.7 mm in length was performed. […]
Three weeks after AV fistula creation, animals were euthanized, and the AV anastomoses were perfusion-fixed via the left ventricle at 100 mm Hg pressure as described previously (Leidenfrost J E, et al., Am J Pathol. 2003; 163(2):773-778).^53 Before perfusion fixation, blood was drawn from the left ventricle for the biochemical analysis. Blood urea nitrogen (BUN), phosphorus, and calcium were measured by autoanalyzer techniques in the Animal Facility Clinical Laboratory at Washington University in St. Louis, Mo. […]

B1: BMP-7: bone morphogenetic protein-7 (osteogenic protein-1), mineralization-countering morphogen; provided by Johnson and Johnson (protein, listed as Homo sapiens)
chain: STGSKQRSQNRSKTPKNQEALRMANVAENSSSDQRQACKKHELYVSFRDLGWQDWIIAPEGYAAYYCEGECAFPLNSYMNATNHAIVQTLVHFINPETVPKPCCAPTQLNAISVLYFDDSSNVILKKYRNMVVRACGCH
mineralization of the ECM ([1]; BMP-7 0.1, 1 and 10 ng/ml, 14 or 21 days in high phosphorus media (FIG. 4)): decreased mineralization of the ECM | Matrix Ca content, Effects of 10 ng/ml BMP-7 ([1]; hVSMC from atherosclerotic aortas, one donor (donors 1-7, passage 2-3), 10 ng/ml BMP-7 in high phosphorus (2 mM PO4) media): 18 and 17.9 and 25.8 and 19.8 and 22.1 and 20.3 and 20.6 | NH lesion formation induced by CKD ([2]; CKD animals, BMP-7 100 μg/kg intraperitoneally twice a week, P<0.01 (FIG. 12)): eliminated the stimulation of NH lesion formation induced by CKD | NH lesion development ([2]; sham operated animals, BMP-7 100 μg/kg intraperitoneally twice a week (FIG. 12)): no effect
